# Measurements: US20050214302A1, “Use of emmprin antagonists for the treatment of diseases associated with excessive angiogenesis” (priority 2004, published 2005)
# B1: recombinant EMMPRIN: recombinant protein corresponding to the extracellular domain of human EMMPRIN, produced in NSO cells (R&D Systems) (protein, UniProt P35613 138-323, looked up)
# extracellular domain: EPGTVFTTVEDLGSKILLTCSLNDSATEVTGHRWLKGGVVLKEDALPGQKTEFKVDSDDQWGEYSCVFLPEPMGTANIQLHGPPRVKAVKSSEHINEGETAMLVCKSESVPPVTDWAWYKITDSEDKALMNGSESRFFVSSSQGRSELHIENLNMEADPGQYRCNGTSSKGSDQAIITLRVRSHLA
# modifications: extracellular domain
# What was measured:
# HMVEC-L cells = test: Recombinant EMMPRIN stimulation of MMP-1 production by HMVEC-L cells (MMP-1 activity kit); format: cell-based, human
# Experimental: HMVEC-L cells were obtained from Clonetics, Walkersville, Md. (Cat# CC-2527, Lot# 8F1528). HMVEC-L cells were cultured under conditions recommended by the supplier. Briefly, cells were cultured in Endothelium Cell Growth Medium MV (EGM-2 MV, Clonetics, Cat#CC-3202) containing human epithelial growth factor (hEGF), hydrocortisone, human basic fibroblast growth factor (hFGF-B), vascular endothelial growth factor (VEGF), human insulin-like growth factor-1 (hIGF-1), ascorbic acid, gentamicin, 5% FBS, at 37° C., 5% CO2.
# Early passage cells (less than passage 3) were trypsinized and washed with RPMI-1640 once. Cells were resuspended in Dilution Medium (DM−Fibroblast Basic Medium+2% FBS) at a concentration of 5×100,000 cells/ml. 100 μl of the cell suspension containing 50,000 cells was added into each well in a 96 well cell culture plate. […]
# Quantitative detection of MMP-1 activity in the conditioned medium was carried out using Human MMP-1 Activity Kit (R&D Systems, Minneapolis, Minn.) (Cat#F1M00). […] MMP substrate added into each well was cleaved by active MMP-1 and the resulting fluorescence was determined using SpectraFluor Plus Plate Reader (TECAN, Zurich, Switzerland) (Cat# F129005, Ser# 94747) with the following parameters: excitation wavelength at 320 nm and emission wavelength at 405 nm.
# [1] = test system: angiogenesis in Matrigel plugs; test: Matrigel plug angiogenesis assay in vivo; details: suboptimal doses of FGF or VEGF, mice, expected
# Description: The role of EMMPRIN in angiogenesis will be directly investigated in vivo using Matrigel plug assays. Matrigel is a solubilized basement membrane preparation extracted from the Engel-Holm-Swarm (EHS) mouse sarcoma, a tumor rich in extracellular matrix proteins. The major component is laminin, but Matrigel also contains trace amounts of fibroblast growth factor, TGF-beta, tissue plasminogen activator, and other growth factors that occur naturally in the EHS tumor. Matrigel is the basis for several types of tumor cell invasion assays and provides the necessary substrate for the study of angiogenesis. Matrigel forms a soft gel plug when injected subcutaneously into mice or rats and supports an intense vascular response when supplemented with angiogenic factors.
# Matrigel plugs containing suboptimal doses of angiogenic growth factors, such as basic fibroblast growth factor (FGF), or vascular endothelial cell growth factor (VEGF) can be implanted into mice to induce angiogenesis in vivo. Some of these plugs are supplemented with various doses of recombinant EMMPRIN.
# NHLF cells = test: Recombinant EMMPRIN stimulation of MMP-1 production by NHLF cells; format: cell-based, human; details: same treatment (20 μg/ml EMMPRIN)
molecule,measurement,setting,value
B1,Stimulation of MMP-1 production in endothelial cells (result in words),"HMVEC-L cells; 0.08-20 μg/ml EMMPRIN, 1 day and 3 days, FIG. 2",dose-dependently stimulated MMP-1 production
same,MMP-1 produced by HMVEC-L cells,HMVEC-L cells; treated with 20 μg/ml EMMPRIN,approximately 40 ng/ml
same,Angiogenesis in Matrigel plugs supplemented with recombinant EMMPRIN,[1],increase in angiogenesis
same,MMP-1 produced by NHLF cells relative to HMVEC-L,NHLF cells,only half of that amount
